Here are results for 30 sequences from the supplement of paper PMC9170038.

In the data set the test system is MS2 coat protein. The data set can be described thus: apparent KD of MS2 coat protein; designed switch direction (-1 OFF switch, 1 ON switch): -1; higher = weaker reporter binding. The method, boiled down:
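Designed RNA switches were transcribed on Illumina chips by stalled E. coli RNA polymerase and titrated with SNAP-549-labelled MS2 coat protein from 0.7 or 1.5 nM, doubling to 3 µM. Step length ran from 0.8–1.5 h at the lowest concentration to 10–20 min at the highest. The apparent KD is the median over clusters for each design, from curve-fitted normalised cluster fluorescence.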

[1] abbreviates: input ligand: microRNA oligo, concentration not stated.
Where [2] appears, read: Eterna round: R95, input ligand: microRNA oligo, concentration not stated.
Where [3] appears, read: Eterna round: R95, input ligand: FMN 200 uM.
Setting [4] is: Eterna round: R95, input ligand: none.

With “AUCAGCUCGUCAGGAUAUACAUGAGGAUCACCCAUGUGGUCAUUAGCAGCUUCGGCUGCAUUAAUGUAGAAGGGACGAGCUGAU [ENG2/8-B2] (Eterna round: R96, puzzle: Exclusion NG 2)”, the “apparent KD of MS2 coat protein” value (input ligand: FMN 200 uM) turned out to be 0.544 µM, the “apparent KD of MS2 coat protein” value under setting [1] is 0.522 µM and the “apparent KD of MS2 coat protein” value (input ligand: none) worked out at 0.502 µM.
In the case of “AUCAGCUCGUGAGGAUAUGAACAUGAGGAUCACCCAUGUAAGAUCAAGCUGCUUCGGCAGCAAGUUCAGAAGGUACGAGCUGAU [ENG2/10-C3] (Eterna round: R96, puzzle: Exclusion NG 2)”, the “apparent KD of MS2 coat protein” value by setting is: (input ligand: FMN 200 uM) 0.197 µM; under setting [1], 0.0781 µM; (input ligand: none) 0.139 µM.
Take “AUCAUGUGAGGAUAUGUGAUCAACCUUCUGUAUAGAUGAUUACAGAAGGCACAUGAGGAUCACCCAUGUAGAUC [Ex4 - 3 - 21] (puzzle: Exclusion 4)”: under setting [2], the “apparent KD of MS2 coat protein” value was 0.0557 µM.
Regarding “AUCCUUAACAAGGAUAUCGGGCGGGAAAUUGUUUGAGAAGGUGUAACAUGAGGAUCACCCAUGUUAAACGUGGA [-18.8, -18.6 kcal, A 32%] (Eterna round: R97, puzzle: Exclusion 6)”, the “apparent KD of MS2 coat protein” value reads like this: (input ligand: FMN 200 uM) 0.0223 µM; (input ligand: none) 0.0234 µM.
On to “AUCGUGAAGAAGGAUAUGGGCCCGGUAAUACGACUAGAAGGUCUGACAUGAGGAUCACCCAUGUGAUACCAAAA [Arorquis] (puzzle: Exclusion 6)”, for which the “apparent KD of MS2 coat protein” value is, setting by setting: under setting [3], 0.0322 µM; under setting [2], 0.0333 µM; under setting [4], 0.0325 µM.
“AUCGUGCAGCAAAGCUGUACGAGUACAUGAGGAUCACCCAUGUAGGAUAUGGUACGCUUUGCGUGCUAGAAGGAUAUGUGUAGG [Mat - Exclusion NG 3 - Mod of JL - D83] (Eterna round: R96, puzzle: Exclusion NG 3)”: the “apparent KD of MS2 coat protein” value reads like this: (input ligand: FMN 200 uM) 0.0357 µM; under setting [1], 0.031 µM; (input ligand: none) 0.0357 µM.
On to “AUCGUGCAGCUUUGCUGUACGAGUACAUGAGGAUCACCCAUGUAGGAUAUGGUACGCAAAGCGUGCUAGAAGGAUAUGAGAUGU [Mat - Exclusion NG 3 - Mod of JL - D98] (Eterna round: R96, puzzle: Exclusion NG 3)”, for which the “apparent KD of MS2 coat protein” value (input ligand: FMN 200 uM) was 0.0304 µM, the “apparent KD of MS2 coat protein” value under setting [1] worked out at 0.0252 µM and the “apparent KD of MS2 coat protein” value (input ligand: none) was 0.0316 µM.
As to “AUCGUGUGAGGAUAUCGAUUAUGGAGGUCUAGGUCCAUACGCGAGAAGGCACAUGAGGAUCACCCAUGUAAUGG [jl-ex4-4.31 ViennaUCT mod] (Eterna round: R97, puzzle: Exclusion 4)”, the “apparent KD of MS2 coat protein” value (input ligand: FMN 200 uM) came to 0.126 µM and the “apparent KD of MS2 coat protein” value (input ligand: none) was determined as 0.309 µM.
For “AUGGGUCCUCACGGAGCUACAUGAGGAUCACCCAUGUGGAUUGAGGAUAUCGUAACCCGACGGGACGAGAAGGCAGUUUACUGU [Ex NG3 #98] (Eterna round: R96, puzzle: Exclusion NG 3)”, the “apparent KD of MS2 coat protein” value is, setting by setting: (input ligand: FMN 200 uM) 0.0631 µM; under setting [1], 0.023 µM; (input ligand: none) 0.0294 µM.
On the same counts, the results for “AUGGUUCGAUUAGGAUAUUAUAGAUUGAAUAGUAUGAUUUACAUGAGGAUCACCCAUGUUACAUUUAAGAAGGAAUCGAAUCAU [JR_ExcNG2_Sub088] (Eterna round: R96, puzzle: Exclusion NG 2)” are 0.0139 µM, 0.0132 µM and 0.0215 µM.
For the sequence “AUGUAAGCGGAGGAUAUCUGGUGGAUACAGAUGGGAGAAGGUCGCACAUGAGGAUCACCCAUGUCGCAGAGAUG [Eternabot (L2) Solution 83] (Eterna round: R97, puzzle: Exclusion 6)”, the “apparent KD of MS2 coat protein” value reads like this: (input ligand: FMN 200 uM) 0.0441 µM; (input ligand: none) 0.0553 µM.
Take “AUGUGACAUGAGGAUCACCCAUGUGAGGAUAUCAUGCUUCGUAGUAAACUACGAAGUGUGAGAAGGCACAUAAC [Omei Ex1 E7] (Eterna round: R97, puzzle: Exclusion 1)”: the “apparent KD of MS2 coat protein” value by setting is: (input ligand: FMN 200 uM) 0.357 µM; (input ligand: none) 0.0802 µM.
For the sequence “AUUAAACAUGUAGGAUAUGCGUAGCAAAGCUAUGCAGAAGGACAUGAGGAUCACCCAUGUAAAAGCGUCUGAGUACAGAUGCAA [Mat - Exclusion NG 1 - Mod of JL - D88] (Eterna round: R96, puzzle: Exclusion NG 1)”, the “apparent KD of MS2 coat protein” value reads like this: (input ligand: FMN 200 uM) 0.936 µM; under setting [1], 0.0405 µM; (input ligand: none) 0.0476 µM.
For “AUUAACAUGUUGAUCAAAUACAUGAGGAUCACCCAUGUAUGCUUUUUGCUCGAUAAGAUCAACUAAUUAAUUAAUUA [StovNew/1-B] (Eterna round: R97, puzzle: Sensor, turn-off variant 1)”, the “apparent KD of MS2 coat protein” value stood at 0.0139 µM (input ligand: FMN 200 uM) and 0.0126 µM (input ligand: none).
The corresponding values for “AUUAAUUGUCAGAUGGGUGACAUGAGGAUCACCCAUGUCACAAGCUUUUUGUUCGUCUUAUAAUUAACCCAUCUGAC [Stov1/11-B2] (Eterna round: R97, puzzle: Sensor, turn-off variant 1)” are 0.0138 µM and 0.0144 µM.
Take “AUUACGUCAGGAUAUGCGUGUUAGACAUGUUUAACCUAAGAACAUGAGGAUCACCCAUGUAGAAGGGACGCUCA [Eternabot (L1) Solution 78] (Eterna round: R97, puzzle: Exclusion 2)”: the “apparent KD of MS2 coat protein” value came to 0.0689 µM (input ligand: FMN 200 uM) and 0.0649 µM (input ligand: none).
As to “AUUAUAUAGACAGGAUAUAGAAUAUUAUUUUAACAUGAGGAUCACCCAUGUAACCUUAUGUGUAGCUAGAAGGGUCAUUUAUUA [Title] (Eterna round: R96, puzzle: Exclusion NG 2)”, under setting [1], the “apparent KD of MS2 coat protein” value was determined as 0.0774 µM.
On the same count and under the same terms, with “AUUAUAUAGAUAGGAUAUAGAAUAUUAUUUUAACAUGAGGAUCACCCAUGUAACCUUAUGUGUAGCUAGAAGGAUCAUUUAUUA [Title] (Eterna round: R96, puzzle: Exclusion NG 2)” the figure was 0.0695 µM; with “AUUAUAUAGGAAGGAUAUAGAAUAUUAUUUUAACAUGAGGAUCACCCAUGUAACCUUAUGUGUAGCUAGAAGGUCCAUUUAUUA [Title] (Eterna round: R96, puzzle: Exclusion NG 2)”, 0.0956 µM.
“AUUAUGUAAGGAUAUCUUACAUGUGACUUCGGUCACUGUUAAGAGAAGGUACAUGAGGAUCACCCAUGUAUAAC [Ex4-3: 48] (puzzle: Exclusion 4)”: the “apparent KD of MS2 coat protein” value under setting [2] is 0.0188 µM.
Consider “AUUGAUAGCACAGGAUAUUGAGAUUUGAAUUGACAAGAAGGGUGUACAUGAGGAUCACCCAUGUAAUGGCUGCCUCGUUGAUUA [JR_ExcNG1_Sub005] (Eterna round: R96, puzzle: Exclusion NG 1)”, for which, under setting [1], the “apparent KD of MS2 coat protein” value is 0.0456 µM.
Take “AUUGGGCAAGCAUGAUCCCACAUGAGGAUCACCCAUGUGUUCGUCUUAUAGGCUGCUGAGGCUUUUGCCUCGGUGGC [LRO Sensor-off var1-02 loose mod of D91 from Mat747] (Eterna round: R97, puzzle: Sensor, turn-off variant 1)”: the “apparent KD of MS2 coat protein” value is, setting by setting: (input ligand: FMN 200 uM) 0.706 µM; (input ligand: none) 0.875 µM.
In the case of “AUUGUUUGAUACCUUUAAUACAUGAGGAUCACCCAUGUUAUCGAGGAUAUGUAGAAGAGAUGAGAACAGAAGGCGAAGUAAGAG [JR_ExcNG3_Sub096] (Eterna round: R96, puzzle: Exclusion NG 3)”, the “apparent KD of MS2 coat protein” value runs as follows: (input ligand: FMN 200 uM) 0.0213 µM; under setting [1], 0.0111 µM; (input ligand: none) 0.0165 µM.
Turning to “AUUUACGGAGGAUAUACUUGAGGAUCACCCAAGUGGAGUCCCGUUUGGGCGGUAAAUAGUAGAAGGCCGUCCCA [jl-ex3-4.45 ViennaUCT mod] (Eterna round: R97, puzzle: Exclusion 3)”, the “apparent KD of MS2 coat protein” value by setting is: (input ligand: FMN 200 uM) 0.0202 µM; (input ligand: none) 0.0133 µM.
As to “AUUUAGAGAGGAUAUAUAUUUUAAAACAUGAGGAUCACCCAUGUAAUUUUAUGGGAGAAAAUAGAAGGCUCAUUUA [JMFs Solution 1] (puzzle: Exclusion 5)”, the “apparent KD of MS2 coat protein” value is 0.114 µM under setting [3], 0.205 µM under setting [2] and 0.197 µM under setting [4].
“AUUUUAACAUAGGAUAUCGAAUUUAUUAUUUAACGAGAAGGAUGAACAUGAGGAUCACCCAUGUGGUAUCAUGA [Mat - Exclusion 6 - JL Mod - D21] (puzzle: Exclusion 6)”: the “apparent KD of MS2 coat protein” value was 0.0728 µM under setting [3], 0.0406 µM under setting [2] and 0.0459 µM under setting [4].
The corresponding values for “CAAAAGGAAGGAUAUGAUAAGCAGGACAUGAGGAUCACCCAUGUGACUGCCUCGUGGACAUCAGAAGGUCCAGGAC [Erqureorle] (puzzle: Exclusion 5)” are 0.0432 µM, 0.0172 µM and 0.0138 µM.
For “CAAACCAGAGGAUAUGCGCAUAGAUCAGACUUUGUUUCUGAACAUGAGGAUCACCCAUGUAGAAGGCUGUAAAA [Ex2 #83] (Eterna round: R97, puzzle: Exclusion 2)”, the “apparent KD of MS2 coat protein” value came out at 0.0281 µM (input ligand: FMN 200 uM) and 0.0297 µM (input ligand: none).
Consider “CAACCACGUGCAGGAUAUGCGAAGUGAUUCGGUGGUACCACAGCGUAAACAUGAGGAUCACCCAUGUAGAAGGGCAUGAGGGCU [Eternabot solution 16] (Eterna round: R96, puzzle: Exclusion NG 2)”, for which the “apparent KD of MS2 coat protein” value (input ligand: FMN 200 uM) came out at 0.352 µM, the “apparent KD of MS2 coat protein” value under setting [1] was determined as 0.119 µM and the “apparent KD of MS2 coat protein” value (input ligand: none) stood at 0.123 µM.
The corresponding values for “CAAGCUUUGCGAGGAUAUGAUGGCCUAUAUGCCUCAGAAGGCGCAGAUACUUGAGGAUCACCCAAGUGAUGCAAAUACGAAAAU [Mutated MS2 EX1.17] (Eterna round: R96, puzzle: Exclusion NG 1)” are 0.0713 µM, 0.0174 µM and 0.02 µM.
